Measurements: paper PMC11283454 (Nature Communications, 2024)

Biological target: the molecule itself
Assay: MST

B1: human ATE1 isoform 2 (arginyl-tRNA-protein transferase 1), recombinant (enzyme, UniProt O95260-2 1-518, looked up)
chain: MAFWAGGSPSVVDYFPSEDFYRCGYCKNESGSRSNGMWAHSMTVQDYQDLIDRGWRRSGKYVYKPVMNQTCCPQYTIRCRPLQFQPSKSHKKVLKKMLKFLAKGEVPKGSCEDEPMDSTMDDAVAGDFALINKLDIQCDLKTLSDDIKESLESEGKNSKKEEPQELLQSQDFVGEKLGSGEPSHSVKVHTVPKPGKGADLSKPPCRKAKEIRKERKRLKLMQQNPAGELEGFQAQGHPPSLFPPKAKSNQPKSLEDLIFESLPENASHKLEVRLVPVSFEDPEFKSSFSQSFSLYVKYQVAIHQDPPDECGKTEFTRFLCSSPLEAETPPNGPDCGYGSFHQQYWLDGKIIAVGVIDILPNCVSSVYLYYDPDYSFLSLGVYSALREIAFTRQLHEKTSQLSYYYMGFYIHSCPKMKYKGQYRPSDLLCPETYVWVPIEQCLPSLENSKYCRFNQDPEAVDEDRSTEPDRLQVFHKRAIMPYGVYKKQQKDPSEEAAVLQYASLVGQKCSERMLLFRN
modifications: red Tris-NTA dye on the labelled copy in MST
B1 was tested, and the Kd was 8.5 µM.
